The values below come from publication PMC7586906, “Development and characterization of specific anti‐Usutu virus chicken‐derived single chain variable fragment antibodies” (Protein Science : A Publication of the Protein Society, 2020).

Assay [1] addresses T1, soluble E (sE) protein of USUV strain Bologna-2009 (Usutu virus strain Bologna-2009, UniProt R4HE74, strain).
T1 construct: also called sE of USUV; USUV sE; source: Drosophila S2 cells, provided by Prof; Karin Stiasny and Lena Roßbacher
As to the kind of experiment: far-Western, overlay or dot blot; western blot at one amount: 0.5 μg of E protein DIII and 0.5 or 0.25 μg of sE per well on a 15% SDS gel, probed with 5 μg of scFv in 10 ml PBST, then mouse anti-HA and HRP goat anti-mouse. The note with it: both partners purified. Background: A western blot detects proteins with antibodies after separation by electrophoresis.

Assay [2] addresses T2, USUV strain Vienna-2001 whole virus (E protein on virions) (Usutu virus Vienna-2001, UniProt Q5WPU5, strain).
T2 construct: envelope (E) protein of Usutu virus strain Vienna-2001, cut from the polyprotein, as it stands on whole virions coated on the plate; The assay used whole virus; The other proteins of the virion are not written; also called USUV Vienna-2001; source: virus expanded in C6/36 cells, precipitated with 8% PEG8000, resuspended in NTE buffer
As to the kind of experiment: ELISA; virus ELISA: PEG-precipitated USUV Vienna-2001 (8.1 × 10^6 pfu in 50 μl) coated on the plate, blocked with 5% BSA, scFv 2.5-20 μg/ml for 1 hr at 37°C, detected by HRP anti-His, 450 nm. Particulars: one partner purified.

Assay [3] addresses T3, USUV E protein DIII group B (Usutu virus, sequence group B, strain).
T3 construct: 103 amino acids, 11.0 kDa; also called USUV B; USUV DIII group B
T3 chain: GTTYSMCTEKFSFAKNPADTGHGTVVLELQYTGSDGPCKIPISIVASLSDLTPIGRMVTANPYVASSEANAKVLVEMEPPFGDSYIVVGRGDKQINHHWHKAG
As to the kind of experiment: SPR; Biacore T200; scFv captured by its His-tag on a CM5 chip (His Capture Kit), E protein DIII as analyte in two-fold dilutions (31-2,000 nM; WNV also 100-32,000 nM), multi-cycle kinetics, 25°C, PBS with 0.05% Tween 20, 30 μl/min; 1:1 kinetic fit (legend of Figure 4), steady-state affinity model named for KD in the methods. Particulars: both partners purified. For orientation: Surface plasmon resonance follows binding to a sensor surface in real time, without labels.

For assay [4], the target named is T4, soluble E (sE) protein of WNV strain NY-1999 (West Nile virus NY-1999 (NY99), UniProt Q9Q6P4, strain).
T4 construct: whole ectodomain of the envelope (E) protein of West Nile virus strain NY-1999 (NY99); also called sE of WNV; WNV NY99 sE; source: Drosophila S2 cells, provided by Prof; Karin Stiasny and Lena Roßbacher
As to the kind of experiment: far-Western, overlay or dot blot; western blot at one amount: 0.5 μg of E protein DIII and 0.5 or 0.25 μg of sE per well on a 15% SDS gel, probed with 5 μg of scFv in 10 ml PBST, then mouse anti-HA and HRP goat anti-mouse. Particulars: both partners purified.

Another assay concerns the target T5, WNV E protein DIII (West Nile virus NY99 (also called 2741), strain).
T5 construct: domain III of the envelope (E) protein of West Nile virus; 103 amino acids, 10.9 kDa; also called WNV DIII; WNV E protein DIII NY99 strain
T5 chain: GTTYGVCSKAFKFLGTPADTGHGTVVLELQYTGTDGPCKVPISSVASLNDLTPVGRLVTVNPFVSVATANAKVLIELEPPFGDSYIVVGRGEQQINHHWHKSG
As to the kind of experiment: SPR; Biacore T200; scFv captured by its His-tag on a CM5 chip (His Capture Kit), E protein DIII as analyte in two-fold dilutions (31-2,000 nM; WNV also 100-32,000 nM), multi-cycle kinetics, 25°C, PBS with 0.05% Tween 20, 30 μl/min; 1:1 kinetic fit (legend of Figure 4), steady-state affinity model named for KD in the methods. The note with it: both partners purified.

The target in assay [5] is T6, USUV E protein DIII group I (Usutu virus, sequence group I, strain).
T6 construct: 103 amino acids, 10.9 kDa; also called USUV I; USUV DIII group I
T6 chain: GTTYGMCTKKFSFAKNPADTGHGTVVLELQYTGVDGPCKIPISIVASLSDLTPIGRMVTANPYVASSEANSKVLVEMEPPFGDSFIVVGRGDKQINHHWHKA
Described as above. Particulars: both partners purified.

Values joined by “and” are separate entries in the source; they are usually repeats but may differ in a detail not shown here. Identical values can stand only once.

B1: scFv G1 (scFv, V domains shown)
VH: AVTLDESGGGLQTPGGGLSLVCKASGFDFSRYGMNWVRQAPGKGLEWVAGISPDGSGTWYATAVKGRATISRDNGQSTVRLQLNNLRAEDTATYYCTRGNGDSFDAWGHGTEVIVSS
VL: ALTQPSSVSANLGGTVKITCSGGSYSYGWYQQKSPGSAPVTVIYYNDKRPSDIPSRFSGSKSGSTGTLTITGVQADDEAVYFCGGFDSSAGYVGIFGAGTTLTVL
notes: chicken light chain variable region (V lambda) of G1, N-terminal part of the scFv; long linker between V lambda and VH; From a chicken immune phage display library in pComb3XSS; Could not be held stably on the SPR chip; source: E. coli TOP10, purified (IMAC, HisTrap FF); not shown: His6, C-terminal, kept; HA, C-terminal, kept
On to B1, for which the binding result in assay [1] and in assay [2] was “binds” in each case.

B2: scFv D2.2 (scFv, V domains shown)
VH: AVTLDESGGGLQTPGGALSLVCKGSGFTFSSHAMMWVRQAPGKGLEWVAGISRDGSTYYGAAVKGRATISRDDGQSTVRLQLNNLRAEDTGTYFCAKDVYGYCDTISGCEAGTIDAWGHGTEVIVSS
VL: ALTQPSSVSANLGETVKITCSGSSGSYGWYQQKSPGSAPVTVIYYNDKRPSDIPSRFSGSKSGSTGTLTITGVQADDEAVYFCGSEDSSSTYAGIFGAGTTLTVL
notes: chicken light chain variable region (V lambda) of D2.2, N-terminal part of the scFv; long linker between V lambda and VH; chicken heavy chain variable region (VH) of D2.2; From a chicken immune phage display library in pComb3XSS; source: E. coli TOP10, purified (IMAC, HisTrap FF); not shown: His6, C-terminal, kept; HA, C-terminal, kept
The term Kd denotes the free concentration of one partner at which half of the binding sites on the other are occupied at equilibrium, for simple one-to-one binding. Higher therefore signals weaker binding. By koff is commonly meant the first-order rate constant of dissociation. One may read the kon as the rate constant with which the complex forms. For B2, in assay [2], the binding result is listed as “binds”. Besides, in assay [3], the dissociation constant Kd is 230 nM and 250 nM; the dissociation rate constant (koff) is 0.074 s⁻¹ and 0.069 s⁻¹; the kon is 326000 M⁻¹ s⁻¹ and 273000 M⁻¹ s⁻¹.

B3: scFv A9 (scFv, V domains shown)
VH: AVTLDESGGGLQTPGGTLSLVCKASGFTFSSVNMFWVRQAPGKGLEYVASISNTGSSTNYGAAVKGRATISRDNGQSTVRLQLNNLRAEDTATYFCAKDAYGYSFTVTPGYTIDAWGHGTEVIVSS
VL: ALTQPSSVSANLGGTVKITCSGGGGSYGWYQQKSPGSAPVTVIYENTKRPSNIPSRFSGSKSGSTSTLTITGVQAEDEAVYYCGSTDNNNIFGAGTTLTVL
notes: chicken light chain variable region (V lambda) of A9, N-terminal part of the scFv; long linker between V lambda and VH; chicken heavy chain variable region (VH) of A9; From a chicken immune phage display library in pComb3XSS; also called cross-reactive scFv; source: E. coli TOP10, purified (IMAC, HisTrap FF); not shown: His6, C-terminal, kept; HA, C-terminal, kept
For B3, the binding result in assay [1], in assay [4] and in assay [2] was “binds” each time. For the same molecule, the Kd in assay [3] was 410 nM and 360 nM; with WNV E protein DIII, 100 nM; in assay [5], 290 nM and 300 nM. Moreover, the koff is 0.062 s⁻¹ and 0.059 s⁻¹ in assay [3]; 0.105 s⁻¹ and 0.094 s⁻¹ with WNV E protein DIII; 0.05 s⁻¹ and 0.048 s⁻¹ in assay [5]. The kon in assay [3] was 152000 M⁻¹ s⁻¹ and 166000 M⁻¹ s⁻¹; with WNV E protein DIII, 1.04e+06 M⁻¹ s⁻¹ and 970000 M⁻¹ s⁻¹; in assay [5], 170000 M⁻¹ s⁻¹ and 168000 M⁻¹ s⁻¹.

B4: scFv A8 (scFv, V domains shown)
VH: AVTLDESGGGLQTPGGGLSLVCKASGFTMSSYHMGWVRQAPGKGLEYVVGIDNTGRYTDYGAAVKGRATISRDNGQSTLRLQLNNLRAEDTGTYFCAKSAYLGRGCWDAELCAGEIDAWGHGTEVIVSS
VL: ALTQPSSVSANLGGTVKITCSGGYSGYGWYQQKSPGSAPVTLIYDNTKRPSDIPSRFSGSKSGSTGTLTITGVQAEDEAVYYCGSGDSRNYVGIFGAGTTLTVR
notes: chicken light chain variable region (V lambda) of A8, N-terminal part of the scFv; long linker between V lambda and VH; chicken heavy chain variable region (VH) of A8; From a chicken immune phage display library in pComb3XSS; source: E. coli TOP10, purified (IMAC, HisTrap FF); not shown: His6, C-terminal, kept; HA, C-terminal, kept
Regarding B4, the binding result in assay [2] is on record as “binds”. In assay [3], binding was characterised by a dissociation constant (Kd) of 100 nM, the koff came out at 0.002 s⁻¹ and the kon turned out to be 20000 M⁻¹ s⁻¹. In assay [5], this molecule yielded a Kd of 60 nM, an off-rate (koff) of 0.001 s⁻¹ and a kon of 19800 M⁻¹ s⁻¹.

B5: scFv A12 (scFv, V domains shown)
VH: AVTLDESGGGLQTPGGALSLVCKASGFTFSSYHMGWVRQAPGKGLEYVAGIDNTGRYTDYGAAVKGRATISRDNGQSTLRLQLNNLRAEDTGTYFCAKSAYLGRGCWGAELCAGEIDTWGHGTEVIVSS
VL: ALTQPSSVSANPGETVQITCSGSSNKYGNNYGWYQQKSPGSAPVTVIYDDDKRPSDIPPRFSGSKSGSTNTLTITGVQADDEAVYFCGAYDNSDSGIFGAGTALTVL
notes: chicken light chain variable region (V lambda) of A12, N-terminal part of the scFv; long linker between V lambda and VH; chicken heavy chain variable region (VH) of A12; From a chicken immune phage display library in pComb3XSS; source: E. coli TOP10, purified (IMAC, HisTrap FF); not shown: His6, C-terminal, kept; HA, C-terminal, kept
As for B5, in assay [2], the binding result is recorded as “binds”. Further, in assay [3], the dissociation constant (Kd) was 300 nM and 290 nM; the koff was 0.012 s⁻¹ and 0.01 s⁻¹; the kon was 39600 M⁻¹ s⁻¹ and 34200 M⁻¹ s⁻¹. In addition, in assay [5], the Kd is 140 nM and 130 nM; the koff is 0.007 s⁻¹ and 0.006 s⁻¹; the on-rate constant (kon) is 48600 M⁻¹ s⁻¹ and 46600 M⁻¹ s⁻¹.
